In US20120190612A1, “METHODS OF TREATMENT” (CRC FOR ASTHMA AND AIRWAYS LTD., priority 2009, published 2012):

Legend:
HMVEC-LLy cells [1] = test: Tube formation on Matrigel; type: cell-based, human; settings: 24 hrs, n=2
Method: (§1) To assess formation of tubular structures, 48 well plates were coated with 130 μL Matrigel® (BD Bioscience), which was solidified at 37° C. over 45 min. 2×10^4 HMVEC-LLy cells in complete EBM-2 (500 μL) were seeded per well and allowed to attach for 30 min, before lamstatin, tumstatin, CP17 or vehicle was added to the wells. Photos were taken with a Kodak Digital Camera every 2 hrs. Tube formation peaked at 24 hrs, at which time tubular structures were further analysed to determine length (in pixels) and number of tubes per high power field (HPF) area (px^2). The HPF was divided in nine regions of equal size and tubes per region were counted. Mean and SEM were calculated and plotted.

epithelial cells (A549) = test: MTT cell viability assay, epithelial cells; type: cell-based; settings: increasing concentrations, 72 hrs
integrins α5 and β1 = target: T1, integrins α5 and β1 (Homo sapiens, UniProt P05556+P08648); test: Integrins mediating binding of lymphatic endothelial cells (data not shown); type: cell-based; settings: HMVEC-LLy in vitro, different from HUVECs
T1 construct: endogenous in cells; host or cells: HMVEC-LLy (human primary lymphatic endothelial cells)

outer nodule cells (LAM) = test: Tube formation of LAM outer nodule cells; type: cell-based; settings: 5 hrs
Method: as §1
The inventors then analysed tube formation in LAM nodule cells and found only the outer nodule cells responded with pseudo-tube formation. Assay for tube formation was performed as described above in Example 2. Photos were taken at 2, 3, 4, 5 and 24 hrs after seeding. Lamstatin was added directly after seeding to inhibit prior tube formation. Tube formation peaked at 5 hrs and after 24 hrs no tubular structures were observed (both treated and untreated) (data not shown).

HMVEC-LLy cells [2] = test: Migration towards a VEGF-D gradient (FluoroBlok transwell); type: cell-based, human; settings: 24 hrs, n=1; VEGFD alone 42.000 RFU
Method: FluoroBlok BioCoat 24-well inserts (BD Bioscience) were seeded with 4×10^4 HMVEC-LLy cells in 750 μL DMEM with 0.1% BSA, 1% antibiotics and 25 mM HEPES and incubated for 1 hr. The bottom well was filled with 500 μL medium (as described above) with or without 10 ng/mL VEGF-D (R&D Systems) as well as various concentrations of lamstatin, tumstatin, CP17 or vehicle. Additionally, top wells were loaded with inhibitors to match the bottom well concentration. According to manufacturer's instructions cells were allowed to migrate for 24 hrs before bottom media was removed. Thereafter the underside of the transwell with the migrated cells was washed twice with HANKS buffer and placed in a 4 μg/mL calcein (HANKS) solution for 90 min at 37° C. Signal was read with a bottom read fluorescence microplate reader at 485/515 nm (excitation/emission).

LAM nodule cells = test: MTT cell viability assay, LAM nodule cells; type: cell-based; settings: intermediate layer, centre and outer nodule cells, 72 hrs
Method: To determine the function of lamstatin, human primary lymphatic endothelial cells (HMVEC-LLy cells) were exposed to various concentrations of lamstatin and an MTT assay was performed. As a comparison, commercially available tumstatin was used. Specifically, to assess cell viability 4×10^3 HMVEC-LLy cells were seeded per well in 100 μl complete EBM-2 media (with bullet kit, Lonza) and incubated for 2 hrs at 37° C., 5% CO2. After this period lamstatin, tumstatin and respective vehicles (1 nM EDTA, pH 3.0) were prepared in complete EBM-2 as serial dilutions in a separate plate and added. Cells were grown for 24 hrs before MTT (1 mg/mL in PBS) was added. After 6 h of further incubation cells were lysed overnight with 10% SDS/0.01 M HCl and measured the following day in a plate reader at 570 nm.
The inventors isolated lung cells from a LAM patient, which cells originated from the LAM nodules. These cells were termed according to their location within the nodule, as intermediate layer in the nodule, centre cells and outer nodule cells. These cells were then treated with lamstatin or tumstatin and cell viability measured after 72 hrs. The MTT viability assay was performed as described above in Example 1.

fibroblasts (3567) = test: MTT cell viability assay, fibroblasts; type: cell-based; settings: increasing concentrations, 72 hrs

B1: lamstatin: NC1 domain of the α5 chain of collagen type IV; human amino acid sequence SEQ ID NO:1; recombinant (protein, listed as Homo sapiens)
chain: GFLITRHSQTTDAPQCPQGTLQVYEGFSLLYVQGNKRAHGQDLGTAGSCLRRFSTMPFMFCNINNVCNFASRNDYSYWLSTPEPMPMSMQPLKGQSIQPFISRCAVCEAPAVVIAVHSQTIQIPHCPQGWDSLWIGYSFMMHTSAGAEGSGQALASPGSCLEEFRSAPFIECHGRGTCNYYANSYSFWLATVDVSDMFSKPQSETLKAGDLRTRISRCQVCMKRT
In the case of B1, the “numbers of tube-like structures formed” value (HMVEC-LLy cells [1]) is reported as “reduce in a concentration related manner”, the “cell viability (MTT)” value (epithelial cells (A549)) is reported as “only lymphatic endothelial cells responded” and the “predominant integrins that mediate the binding of lymphatic endothelial cells” value (integrins α5 and β1) is reported as “integrins α5 and β1”. The tube length (outer nodule cells (LAM)) was “significantly inhibited”, the “tube number (tubes per square pixel)” value (outer nodule cells (LAM)) was “significantly inhibited” and the migration towards a VEGFD gradient (HMVEC-LLy cells [2]) was 10000 RFU. The “reduction of cell viability (MTT)” value (LAM nodule cells) was “effective in reducing cell viability of all nodule cell types at both high (e.g. 10 μg/mL) and low (1.25-2.5 μg/mL) concentrations” and the “cell viability (MTT)” value (fibroblasts (3567)) was “only lymphatic endothelial cells responded”.
